{"source": "paper PMC4864350", "about": "“Fluorogenic Substrates for In Situ Monitoring of Caspase-3 Activity in Live Cells” (PLoS ONE, 2016)", "key": {"caspase-3": {"biological_target": "T1, caspase-3 (Homo sapiens, UniProt P42574)", "T1 construct": "purchased R&D systems, USA", "T1 sequence (P42574 29-175 limits assumed)": "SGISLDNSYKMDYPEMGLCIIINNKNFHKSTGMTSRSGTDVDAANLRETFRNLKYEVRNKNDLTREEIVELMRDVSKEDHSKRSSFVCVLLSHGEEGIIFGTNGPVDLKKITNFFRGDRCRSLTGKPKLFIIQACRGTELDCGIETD", "T1 sequence (P42574 176-277 limits assumed)": "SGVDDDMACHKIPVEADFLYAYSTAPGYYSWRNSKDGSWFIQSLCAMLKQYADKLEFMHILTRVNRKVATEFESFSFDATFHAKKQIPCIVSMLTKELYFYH", "experiment": "Kinetic assay of fluorogenic substrates with caspase-3", "type": "biochemical", "conditions": "substrate range 0.1–8 μM, enzyme 20 nM (1–9) or 15 nM (10–14), n = 3", "method": "The ability of […] (bearing MR as the quencher of choice) to act as s substrate for caspase-3, as well as caspase-7, was investigated by determining the catalytic efficiency (kcat/KM) for each substrate with both enzymes (Table 2).\nCaspase-3 or caspase-7 (R&D systems, USA) was added to 100 μL of caspase assay buffer with substrates 1–14 at concentrations from 0.1 μM to 8 μM in a 96-well plate (n = 3) to give final enzyme concentration of 20 nM (1–9) or 15 nM (10–14). Fluorescence (λEx/Em 485/528 nm) was recorded on a Biotek Synergy HT Multi-Mode Microplate Reader every 2 min. Control samples had the same composition but no enzyme. The rate (μM/min) was calibrated using a 5(6)-carboxyfluorescein conversion factor (0.0055 μM/RFU) and data plotted against time (min). For initial cleavage rate (0–5 min), plots were fitted using linear regression analysis and the Michaelis-Menten data generated using GraphPad Prism 5."}, "MCF-7 cells": {"system": "MCF-7 cells", "experiment": "Confocal imaging of staurosporine-treated cells lacking functional caspase-3", "type": "cell-based", "conditions": "cells lack functional caspase-3 but express caspase-7", "method": "Fig 5 Confocal microscopy images of HEK293T and MCF-7 cells treated with substrate 27. Confocal microscopy images (objective HCX PL APO ×63/1.40–0.6 Oil CS) of HEK273T cells with substrate 27 (10 μM) without staurosporine (STS) (A) and with staurosporine (1 μM) (B) induced apoptosis (green fluorescence is from fluorescein “turned on” by caspase-3 cleavage of the substrate, blue is DAPI nuclear stain). (C) Staurosporine treated MCF-7 cells with substrate 27.\nCell culture was performed in a Heracell 150 incubator (Heraeus) and in a Herasafe KS 18 class II negative-flow cabinet (Heraeus). […] Fluorescence was evaluated as mean fluorescence intensity (MFI) and estimated <100 u.a. for untreated control cells (consistent values independently of staurosporine addition). Apoptotic cells treated with substrate 1 were used as a positive control to obtain the maximum of fluorescence signal. […] The data were analysed using the software Flowjo® 7.5.\nFor confocal microscopy, the cells were fixed with 4% paraformaldehyde in PBS and the nuclei stained with Hoechst-33342 (1% w/v in PBS). Cellular fluorescence of cells was analysed using an Inverted Leica DM IRB with filter I3 (450–490 nm) and a Leica SP5 Confocal (FITC and DAPI channel)."}}, "note": "*: point of attachment. MethylRed = CN(C)c1ccc(/N=N/c2ccccc2C(=O)*)cc1; FAM = 5(6)-carboxyfluorescein; peptoid = not defined here; Ahx = NCCCCCC(=O)O"}
{"substance": "substrate 27: FAM-Ahx-Asp-Leu-Pro-Asp-Lys(MR)-Ahx, conjugated to the cell penetrating peptoid at the C-terminus ({FAM-Ahx}-DLPDK(MethylRed)-{Ahx-peptoid}; reading uncertain; also: printed as FAM-Ahx-Asp-Leu-Pro-Asp-Lys(MR)-Ahx)", "values": [{"measurement": "Km", "setting": "caspase-3; fluorescence λEx/Em 485/528 nm, initial rate 0–5 min, Michaelis-Menten", "result": "1.1 ± 0.3", "unit": "µM"}, {"measurement": "Kcat, Caspase-3", "setting": "caspase-3", "result": "0.035 ± 0.013", "unit": "s⁻¹"}, {"measurement": "fluorescence turn-on in apoptotic MCF-7 cells (confocal)", "setting": "MCF-7 cells", "result": "No fluorescence “turn-on” was observed"}]}
